Results: patent US20060110774A1

Target: rabbit anti-GRK polyclonal antibody
Experiment: competitive inhibition ELISA: pAb pre-incubated with pGRK, then added to immobilised rGRK

- concentration giving complete inhibition of antibody binding: 10 ng/µL
Binder: NSQSYYNGDPFITKDC [synthetic peptide pGRK (…) derived from human Granzyme K]
